{"source": "patent US20250043302A1", "about": "“MUTATED HYDROXYPHENYLPYRUVATE DIOXYGENASE POLYPEPTIDE, AND CODING GENE AND USE THEREOF” (BEIJING DABEINONG BIOTECHNOLOGY CO., LTD., priority 2021, published 2025)", "format_in_all_cases": "in vivo", "key": {"[1]": {"system": "Arabidopsis thaliana T1 plants", "experiment": "Isoxaflutole tolerance of transgenic Arabidopsis thaliana T1 plants (spray, bleached leaf area grade, damage score)", "parameters": "Scores (pesticide damage): scale not given here", "conditions": "spray, Arabidopsis thaliana T1 plants; for Classification and statistics of the grade of pesticide damage: Grade 0 (number of plants) / Classification and statistics of the grade of pesticide damage: Grade 1 (number of plants) / Classification and statistics of the grade of pesticide damage: Grade 2 (number of plants) / Classification and statistics of the grade of pesticide damage: Grade 3 (number of plants): 16 plants", "outline": "(§1)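 Damage was assessed by bleaching grade (0 none; 1 <50%; 2 >50%; 3 100% of leaf area) one week after spraying. Sprays on 18-day-old T1 and wild-type plants used field-rate multiples: topramezone 25–200, isoxaflutole 35–280, mesotrione 52.5–420 g ai/ha.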"}, "[2]": {"system": "Arabidopsis thaliana T1 plants", "experiment": "Mesotrione tolerance of transgenic Arabidopsis thaliana T1 plants (spray, bleached leaf area grade, damage score)", "parameters": "Scores: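 damage score 0-100 computed as Σ(N×S)/(T×M)×100 over grades 0-3 with higher meaning more damage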", "conditions": "Arabidopsis thaliana T1 plants; for Grade 0 (classification and statistics of the grade of pesticide damage; number of plants) / Grade 1 (classification and statistics of the grade of pesticide damage; number of plants) / Grade 2 (classification and statistics of the grade of pesticide damage; number of plants) / Grade 3 (classification and statistics of the grade of pesticide damage; number of plants): 16 plants", "outline": "as §1"}, "[3]": {"system": "Arabidopsis thaliana T1 plants", "experiment": "Topramezone tolerance of transgenic Arabidopsis thaliana T1 plants (spray, bleached leaf area grade, damage score)", "conditions": "7 DAT, Table 4; for Classification and statistics of the grade of pesticide damage: Grade 0 / Classification and statistics of the grade of pesticide damage: Grade 1 / Classification and statistics of the grade of pesticide damage: Grade 2 / Classification and statistics of the grade of pesticide damage: Grade 3: number of plants; for Scores: pesticide damage score 0-100", "outline": "as §1"}, "[4]": {"conditions": "isoxaflutole 35 g ai/ha (0.5x field concentration)"}, "[5]": {"conditions": "isoxaflutole 70 g ai/ha (1x field concentration)"}}, "data": [{"molecule": "ZmHPPDm-F372A-F383W-02: nucleotide sequence encoding Zea mays HPPD with F372A+F383W; vector DBN11769 (nucleic acid, ZmHPPDm-F372A-F383W-02 Nucleotide Sequence, vector DBN11769) DNA: ATGCCACCCACACCCACAGCAGCAGCGGCGGGCGCAGCGGTCGCAGCGGCGTCAGCGGCGGAGCAAGCGGCGTTCAGATTGGTTGGTCACCGCAACTTCGTGAGATTCAATCCTCGCTCAGATAGATTCCATACTCTGGCCTTCCACCATGTTGAGCTTTGGTGCGCTGATGCTGCTTCTGCTGCTGGAAGGTTCAGCTTCGGTTTGGGTGCTCCCCTCGCTGCTAGATCTGATTTGAGCACTGGTAACTCAGCACATGCTTCCCTCCTGCTTAGATCTGGCTCTCTGAGCTTCCTTTTCACTGCTCCATATGCTCATGGTGCTGATGCTGCTACAGCTGCTCTCCCTTCATTCTCCGCTGCTGCTGCTAGGAGATTCGCTGCTGATCACGGATTGGCTGTGAGGGCTGTTGCACTTAGAGTTGCTGATGCTGAGGAGGCCTTCCGCACCTCTGTTGCTGCTGGAGCCAGACCAGCTTTCGGACCTGTTGATCTCGGAAGGGGTTTCCGCCTGGCTGAGGTGGAGCTTTACGGCGATGTGGTTCTGCGCTACGTTAGCTATCCTGATGGTGCTGCTGGTGAACCTTTCCTTCCAGGATTCGAGGGTGTGGCCTCACCAGGTGCCGCTGATTACGGCCTGTCCAGATTCGACCACATTGTTGGAAATGTTCCTGAGCTTGCTCCAGCTGCTGCCTACTTCGCTGGCTTCACCGGATTCCATGAGTTCGCCGAGTTCACCACTGAGGATGTGGGAACTGCTGAGTCTGGTTTGAATAGCATGGTGCTCGCCAACAATTCAGAGAACGTTTTGCTCCCTCTGAATGAGCCCGTGCACGGAACAAAGAGAAGGTCCCAGATTCAAACCTTCTTGGATCACCACGGCGGCCCAGGTGTTCAGCATATGGCTCTCGCCTCCGATGACGTGTTGAGAACCCTCAGGGAGATGCAAGCCAGGTCTGCTATGGGTGGCTTCGAGTTCATGGCCCCACCTACAAGCGATTACTATGATGGTGTGCGCAGAAGGGCTGGCGACGTTCTTACCGAGGCTCAGATCAAGGAGTGCCAAGAGCTGGGCGTGCTTGTTGATAGAGATGACCAGGGAGTTCTGCTTCAAATTGCTCCCAAGCCAGTGGGCGACAGGCCTACTTTGTGGCTCGAGATTATCCAGAGAATCGGATGCATGGAGAGGGATGAGAAGGGTCAGGAGTACCAAAAGGGAGGTTGCGGCGGATTCGGCAAGGGAAATTTCTCACAACTCTTCAAGTCCATCGAGGACTATGAAAAGAGTCTGGAAGCGATGCAGGCAGCAGCAGCAGCAACCGCACAGGGGTCGTGA", "values": [{"measurement": "Resistance evaluation", "setting": "[1]; [4]", "value": "Moderately"}, {"measurement": "Scores (pesticide damage)", "setting": "[1]; [4]", "value": 25}, {"measurement": "Classification and statistics of the grade of pesticide damage: Grade 0 (number of plants)", "setting": "[1]; [4]", "value": 5}, {"measurement": "Classification and statistics of the grade of pesticide damage: Grade 1 (number of plants)", "setting": "[1]; [4]", "value": 10}, {"measurement": "Classification and statistics of the grade of pesticide damage: Grade 2 (number of plants)", "setting": "[1]; [4]", "value": 1}, {"measurement": "Classification and statistics of the grade of pesticide damage: Grade 3 (number of plants)", "setting": "[1]; [4]", "value": 0}, {"measurement": "Resistance evaluation", "setting": "[1]; [5]", "value": "Poorly"}, {"measurement": "Scores (pesticide damage)", "setting": "[1]; [5]", "value": 38}, {"measurement": "Classification and statistics of the grade of pesticide damage: Grade 0 (number of plants)", "setting": "[1]; [5]", "value": 3}, {"measurement": "Classification and statistics of the grade of pesticide damage: Grade 1 (number of plants)", "setting": "[1]; [5]", "value": 8}, {"measurement": "Classification and statistics of the grade of pesticide damage: Grade 2 (number of plants)", "setting": "[1]; [5]", "value": 5}, {"measurement": "Classification and statistics of the grade of pesticide damage: Grade 3 (number of plants)", "setting": "[1]; [5]", "value": 0}, {"measurement": "Resistance evaluation", "setting": "[2]; mesotrione 52.5 g ai/ha", "value": "Highly resistant"}, {"measurement": "Scores", "setting": "[2]; mesotrione 52.5 g ai/ha", "value": 15}, {"measurement": "Grade 0 (classification and statistics of the grade of pesticide damage; number of plants)", "setting": "[2]; mesotrione 52.5 g ai/ha", "value": 9}, {"measurement": "Grade 1 (classification and statistics of the grade of pesticide damage; number of plants)", "setting": "[2]; mesotrione 52.5 g ai/ha", "value": 7}, {"measurement": "Grade 2 (classification and statistics of the grade of pesticide damage; number of plants)", "setting": "[2]; mesotrione 52.5 g ai/ha", "value": 0}, {"measurement": "Grade 3 (classification and statistics of the grade of pesticide damage; number of plants)", "setting": "[2]; mesotrione 52.5 g ai/ha", "value": 0}, {"measurement": "Resistance evaluation", "setting": "[2]; mesotrione 105 g ai/ha", "value": "Moderately"}, {"measurement": "Scores", "setting": "[2]; mesotrione 105 g ai/ha", "value": 33}, {"measurement": "Grade 0 (classification and statistics of the grade of pesticide damage; number of plants)", "setting": "[2]; mesotrione 105 g ai/ha", "value": 3}, {"measurement": "Grade 1 (classification and statistics of the grade of pesticide damage; number of plants)", "setting": "[2]; mesotrione 105 g ai/ha", "value": 10}, {"measurement": "Grade 2 (classification and statistics of the grade of pesticide damage; number of plants)", "setting": "[2]; mesotrione 105 g ai/ha", "value": 3}, {"measurement": "Grade 3 (classification and statistics of the grade of pesticide damage; number of plants)", "setting": "[2]; mesotrione 105 g ai/ha", "value": 0}, {"measurement": "Classification and statistics of the grade of pesticide damage: Grade 0", "setting": "[3]; topramezone 25 g ai/ha (1×)", "value": 16}, {"measurement": "Classification and statistics of the grade of pesticide damage: Grade 1", "setting": "[3]; topramezone 25 g ai/ha (1×)", "value": 0}, {"measurement": "Classification and statistics of the grade of pesticide damage: Grade 2", "setting": "[3]; topramezone 25 g ai/ha (1×)", "value": 0}, {"measurement": "Classification and statistics of the grade of pesticide damage: Grade 3", "setting": "[3]; topramezone 25 g ai/ha (1×)", "value": 0}, {"measurement": "Classification and statistics of the grade of pesticide damage: Grade 0", "setting": "[3]; topramezone 100 g ai/ha (4×)", "value": 10}, {"measurement": "Classification and statistics of the grade of pesticide damage: Grade 1", "setting": "[3]; topramezone 100 g ai/ha (4×)", "value": 5}, {"measurement": "Classification and statistics of the grade of pesticide damage: Grade 2", "setting": "[3]; topramezone 100 g ai/ha (4×)", "value": 1}, {"measurement": "Classification and statistics of the grade of pesticide damage: Grade 3", "setting": "[3]; topramezone 100 g ai/ha (4×)", "value": 0}, {"measurement": "Scores", "setting": "[3]; topramezone 25 g ai/ha (1×)", "value": 0}, {"measurement": "Scores", "setting": "[3]; topramezone 100 g ai/ha (4×)", "value": 15}, {"measurement": "Resistance evaluation", "setting": "[3]; topramezone 25 g ai/ha (1×)", "value": "highly"}, {"measurement": "Resistance evaluation", "setting": "[3]; topramezone 100 g ai/ha (4×)", "value": "highly"}]}]}
